B1: HLADH: Horse-liver ADH (A-6128) purchased from Sigma; control polypeptide, SEQ ID NO: 21 (protein, listed as Equus caballus)
chain: MSTAGKVIKCKAAVLWEEKKPFSIEEVEVAPPKAHEVRIKMVATGICRSDDHVVSGTLVTPLPVIAGHEAAGIVESIGEGVTTVRPGDKVIPLFTPQCGKCRVCKHPEGNFCLKNDLSMPRGTMQDGTSRFTCRGKPIHHFLGTSTFSQYTVVDEISVAKIDAASPLEKVCLIGCGFSTGYGSAVKVAKVTQGSTCAVFGLGGVGLSVIMGCKAAGAARIIGVDINKDKFAKAKEVGATECVNPQDYKKPIQEVLTEMSNGGVDFSFEVIGRLDTMVTALSCCQEAYGVSVIVGVPPDSQNLSMNPMLLLSGRTWKGAIFGGFKSKDSVPKLVADFMAKKFALDPLITHVLPFEKINEGFDLLRSGESIRTILTF
B2: MsADH: Methylocella silvestris BL2 ADH, SEQ ID NO: 35 (protein)
chain: MKALVYHGPGQKALEERPKPQIEASGDAIVKIVKTTICGTDLHILKGDVATCAPGRILGHEGVGIIDSVGAGVTAFQPGDRVLISCISSCGKCDYCRRGLYSHCTTGGWILGNEIDGTQAEYVRTPHADTSLYRIPAGADEEALVMLSDILPTGFECGVLNGKVEPGSTVAIVGAGPIGLAALLTAQFYAPGDIIMIDLDDNRLDVARRFGATHTINSGDGKAAEAVKALTGGIGVDTAIEAVGIPATFLLCEDIVAPGGVIANVGVHGVKVDLHLERLWAHNITITTRLVDTVTTPMLLKTVQSKKLDPLQLITHRFTLDHILDAYDTFSRAADTKALKVIVSA
modifications: Methyloceclla silvestris BL2
B3: RnADH1: Rattus norvegicus ADH1, SEQ ID NO: 32 (protein, listed as Rattus norvegicus)
chain: MSTAGKVIKCKAAVLWEPHKPFTIEDIEVAPPKAHEVRIKMVATGVCRSDDHAVSGSLFTPLPAVLGHEGAGIVESIGEGVTCVKPGDKVIPLFSPQCGKCRICKHPESNLCCQTKNLTQPKGALLDGTSRFSCRGKPIHHFISTSTFSQYTVVDDIAVAKIDAAAPLDKVCLIGCGFSTGYGSAVQVAKVTPGSTCAVFGLGGVGLSVVIGCKTAGAAKIIAVDINKDKFAKAKELGATDCINPQDYTKPIQEVLQEMTDGGVDFSFEVIGRLDTMTSALLSCHSACGVSVIVGVPPSAQSLSVNPMSLLLGRTWKGAIFGGFKSKDAVPKLVADFMAKKFPLEPLITHVLPFEKINEAFDLLRAGKSIRTVLTF
B4: ScADH7: Saccharomyces cerevisiae ADH7 alcohol dehydrogenase, SEQ ID NO: 23 (protein, listed as Saccharomyces cerevisiae)
chain: MLYPEKFQGIGISNAKDWKHPKLVSFDPKPFGDHDVDVEIEACGICGSDFHIAVGNWGPVPENQILGHEIIGRVVKVGSKCHTGVKIGDRVGVGAQALACFECERCKSDNEQYCTNDHVLTMWTPYKDGYISQGGFASHVRLHEHFAIQIPENIPSPLAAPLLCGGITVFSPLLRNGCGPGKRVGIVGIGGIGHMGILLAKAMGAEVYAFSRGHSKREDSMKLGADHYIAMLEDKGWTEQYSNALDLLVVCSSSLSKVNFDSIVKIMKIGGSIVSIAAPEVNEKLVLKPLGLMGVSISSSAIGSRKEIEQLLKLVSEKNVKIWVEKLPISEEGVSHAFTRMESGDVKYRFTLVDYDKKFHK
B5: TADH: Thermus sp. ATN1 ADH, SEQ ID NO: 33 (protein)
chain: MRAVVFENKERVAVKEVNAPRLQHPLDALVRVHLAGICGSDLHLYHGKIPVLPGSVLGHEFVGQVEAVGEGIQDLQPGDWVVGPFHIACGTCPYCRRHQYNLCERGGVYGYGPMFGNLQGAQAEILRVPFSNVNLRKLPPNLSPERAIFAGDILSTAYGGLIQGQLRPGDSVAVIGAGPVGLMAIEVAQVLGASKILAIDRIPERLERAASLGAIPINAEQENPVRRVRSETNDEGPDLVLEAVGGAATLSLALEMVRPGGRVSAVGVDNAPSFPFPLASGLVKDLTFRIGLANVHLYIDAVLALLASGRLQPERIVSHYLPLEEAPRGYELFDRKEALKVLLVVRG
modifications: Thermus sp. ATN1
B6: SadB: Achromobacter xylosoxidans Secondary Alcohol Dehydrogenase B; control polypeptide, SEQ ID NO: 26 (protein)
chain: MKALVYHGDHKISLEDKPKPTLQKPTDVVVRVLKTTICGTDLGIYKGKNPEVADGRILGHEGVGVIEEVGESVTQFKKGDKVLISCVTSCGSCDYCKKQLYSHCRDGGWILGYMIDGVQAEYVRIPHADNSLYKIPQTIDDEIAVLLSDILPTGHEIGVQYGNVQPGDAVAIVGAGPVGMSVLLTAQFYSPSTIIVIDMDENRLQLAKELGATHTINSGTENVVEAVHRIAAEGVDVAIEAVGIPATWDICQEIVKPGAHIANVGVHGVKVDFEIQKLWIKNLTITTGLVNTNTTPMLMKVASTDKLPLKKMITHRFELAEIEHAYQVFLNGAKEKAMKIILSNAGAA
modifications: Achromobacter xylosoxidans
B7: PzADH: Phenylobacterium zucineum HLK1 ADH, SEQ ID NO: 34 (protein)
chain: MKALVYGGPGQKSLEDRPKPELQAPGDAIVRIVKTTICGTDLHILKGDVATCAPGRILGHEGVGIVDSVGAAVTAFRPGDHVLISCISACGKCDYCRRGMYSHCTTGGWILGNEIDGTQAEYVRTPHADTSLYPVPAGADEEALVMLSDILPTGFECGVLNGKVAPGGTVAIVGAGPIGLAALLTAQFYSPAEIIMIDLDDNRLGIARQFGATQTINSGDGRAAETVKALTGGRGVDTAIEAVGVPATFELCQDLVGPGGVIANIGVHGRKVDLHLDRLWSQNIAITTRLVDTVSTPMLLKTVQSRKLDPSQLITHRFRLDEILAAYDTFARAADTQALKVIIAA
modifications: Phenylobacterium zucineum HLK1
B8: CbADH: Clostridium beijerinckii ADH, SEQ ID NO: 29 (protein, listed as Clostridium beijerinckii)
chain: MKGFAMLGINKLGWIEKERPVAGSYDAIVRPLAVSPCTSDIHTVFEGALGDRKNMILGHEAVGEVVEVGSEVKDFKPGDRVIVPCTTPDWRSLEVQAGFQQHSNGMLAGWKFSNFKDGVFGEYFHVNDADMNLAILPKDMPLENAVMITDMMTTGFHGAELADIQMGSSVVVIGIGAVGLMGIAGAKLRGAGRIIGVGSRPICVEAAKFYGATDILNYKNGHIVDQVMKLTNGKGVDRVIMAGGGSETLSQAVSMVKPGGIISNINYHGSGDALLIPRVEWGCGMAHKTIKGGLCPGGRLRAEMLRDMVVYNRVDLSKLVTHVYHGFDHIEEALLLMKDKPKDLIKAVVIL

Key:
[1] = Cofactor specificity in isobutyraldehyde reduction reactions; assay type: biochemical; conditions: for COFACTOR PREFERENCE: isobutyraldehyde reduction, NADH or NADPH as cofactor
Method: (§1) As a routine practice, the crude extracts and purified proteins were assayed for butanol oxidation activity, in order to ensure that the recombinant proteins were active throughout the purification process. […] Alcohol oxidation activities were carried out in 50 mM sodium phosphate buffer at pH 8.8 and aldehyde reduction reactions were assayed in 190 mM potassium phosphate buffer at pH 7.0. Depending on the nature of reaction being carried out, the enzyme and cofactor stocks were diluted in the reaction buffers at the respective pHs. Either buffer or cell extract prepared from the proprietary E. coli strain (with no ADH plasmid) was used as the negative control for assays with purified protein and cell-free extracts, respectively.
In initial experiments, there were insufficient levels of protein expression with EhADH1 and RpADH8. […] It is believed that one of skill in the art could further optimize expression and assay conditions for these candidates. Sufficient amounts of active protein could be purified with all other enzymes for which data are presented. […]

[2] = Isobutanol oxidation assay; assay type: biochemical; conditions: Table 8
Method: as §1
Kinetic constants of the ADH enzymes were calculated and compared to identify those candidate ADH enzymes with the most desirable properties for the conversion of isobutyraldehyde to isobutanol in the last step of the engineered pathway for isobutanol production. The assays for determining the kinetic constants were carried out using initial rates from the assays described above. […] The concentration of a given enzyme was such that it was conducive for the measurement of initial velocities over a 1-min time course. For each enzyme, Michaelis-Menten plots were generated with a broad range of substrate concentrations. Rough estimates of KM were obtained, based on which the assays were redesigned so as to use substrate concentrations in the range 0.5 to 10 times the KM value, to be able to obtain the appropriate kinetic constants. […] When calculating the KI for isobutanol, the same reactions were carried out in the presence of varying concentrations of isobutanol (generally 0-535 mM) in the reaction (see FIG. 7, for example). Reactions with isobutanol substrate were performed at 30° C. in 50 mM Sodium phosphate buffer, pH 8.8, containing 7.5 mM NAD. The Enzyme kinetics module (Version 1.3) of SigmaPlot 11 (Systat Software, Inc.) was used to fit data to Michaelis-Menten equations and calculate the kinetic constants. The kcat/KM is derived from the individual numbers of kcat and KM and not an experimentally determined value. The ratios of the KM, KI, and kcat/KM for each candidate enzyme as compared to the same parameter for SadB are given in Table 9.

Row | Molecule | COFACTOR PREFERENCE [1] | Other enzymatic properties and cofactor preference ([1]; Table 8) | conversion of isobutanol to isobutyraldehyde [2] | Other enzymatic properties and cofactor preference ([1]; Table 7)
1 | B1 | NADH |  |  | 
2 | B2 | NADH | NADH specific | No measureable | 
3 | B3 | NADH |  |  | NADH specific
4 | B4 | NADPH |  |  | NADPH specific
5 | B5 | NADH |  |  | NADH specific
6 | B6 | NADH |  |  | 
7 | B7 | NADH | NADH specific | No measureable | 
8 | B8 | NADPH |  |  | NADPH specific
